{"source": "paper PMC5209314", "about": "“Purification and characterization of a novel glutamate dehydrogenase from Geotrichum candidum with higher alcohol and amino acid activity” (AMB Express, 2017)", "proteins": {"B1": {"name": "glutamate dehydrogenase (GDH) from Geotrichum candidum S12 (Geotrichum candidum) (protein)", "chain": "MVQPSEPEFEQAYNELLSTLKDSTLFEKRPELEKVIPIVSIPERVLQFRVVWEDDNGVAQVNRGYRVQFNSALGPYKGGLRFHPTVNLSILKFLGYEQIFKNALTGLNMGGGKGGSDFDPKGKSDSEIRRFCVAFMGELHRHIGADTDVPAGDINVGGREIGYLFGAYKKFKNTWEGVLTGKGLTWGGSLIRPEATGYGVVYYVEKMIEYATQGKESFAGKTVAISGSGNVAQYAALKVIELGGTVVSLSDSKGAFIATTAEGFTPAEIAEIADIKVSHAQLSTLADKFASKFKYLEGARPWVHVKADVALPCATQNEVSGEEAEALVANGTKFIAEGSNMGSTQEAIDVFEAERLKNPQGIWYAPGKAANAGGVAVSGLEMAQNSQRGNWSTEEVDQRLKEIMVNIFNTSVSTAVEYSSEKGDSLPSLVKGANIAGFVKVADAMHDHGDFW", "notes": "identified by PMF similarity to Yaliof17820p (Yarrowia homologue)"}}, "key": {"purified protein [1]": {"substrate": "N", "test": "purified protein", "details": "pH 4.0, 30 °C, printed unit doubtful: tested 5-50 mmol/L and same column is mM in abstract, so probably mmol/L"}, "[2]": {"substrate": "CCCCCCO", "test": "GC of substrate decrease, Lineweaver-Burk", "format": "biochemical, Geotrichum candidum", "details": "NADP+, pH 4.0, 30 °C, Table 2 header prints mol/L, abstract mM"}, "[3]": {"substrate": "CC(C)CCO", "test": "GC of substrate decrease, Lineweaver-Burk", "format": "biochemical, Geotrichum candidum", "details": "NADP+, pH 4.0, 30 °C, Table 2 header prints mol/L, abstract mM"}, "purified protein [4]": {"substrate": "O=C(O)CCC(=O)C(=O)O", "test": "purified protein", "format": "biochemical, Geotrichum candidum", "details": "NADPH, NH4+, pH 4.0, 30 °C, Table 2 header prints μmol/L, abstract mM"}, "purified protein [5]": {"substrate": "N[C@@H](CCC(=O)O)C(=O)O", "test": "purified protein", "format": "biochemical, Geotrichum candidum", "details": "NADP+, pH 4.0, 30 °C, Table 2 header prints μmol/L, abstract mM, competitive with hexanol, b65 prints other Michaelis constants (61.02 and 13.43 mM, both called glutamate)"}, "purified protein [6]": {"substrate": "NC(=O)C1=CN([C@@H]2O[C@H](COP(=O)(O)OP(=O)(O)OC[C@H]3O[C@@H](n4cnc5c(N)ncnc54)[C@H](OP(=O)(O)O)[C@@H]3O)[C@@H](O)[C@H]2O)C=CC1", "test": "purified protein", "format": "biochemical, Geotrichum candidum", "details": "pH 4.0, 30 °C, printed unit doubtful: tested 0.01-0.1 mmol/L and same column is mM in abstract, so probably mmol/L, varied: cofactor"}}, "data": [{"protein": "B1", "values": [{"measurement": "Km", "setting": "purified protein [1]", "value": 0.00535, "unit": "mM"}, {"measurement": "Km", "setting": "[2]", "value": 20.37, "unit": "mM"}, {"measurement": "Km", "setting": "[3]", "value": 19.37, "unit": "mM"}, {"measurement": "Km", "setting": "purified protein [4]", "value": 4.01, "unit": "mM"}, {"measurement": "Km", "setting": "purified protein [5]", "value": 41.74, "unit": "mM"}, {"measurement": "Km", "setting": "purified protein [6]", "value": 0.00013, "unit": "mM"}]}]}
